# B1: NKR-P1B tetramers (biotinylated NKR-P1B on streptavidin) [modified: biotin on the BirA tag; biotin on the BirA tag] [mouse] / Clr-b on transfected HEK293T cells [mouse] (parent)
# chain 1: SAKLECPQDWLSHRDKCFHVSQVSNTWKECRIDCDKKGATLLLIQDQEELRFLLDSIKEKYNSFWIGLSYTLTDMNWKWINGTAFNSDVLKITGVTENGSCAAISGEKVTSEGCSSDNRWICQKELN
# chain 2: MCVTKASLPMLSPTGSPQEVEVGKILQGKRHGTISPESCAKLYCYYGVIMVLTVAVIALSVALSATKTEQIPVNKTYAACPQNWIGVENKCFYFSEYPSNWTFAQAFCMAQEAQLARFDNQDELNFLMRYKANFDSWIGLHRESSEHPWKWTDNTEYNNTIPIRGEERFAYLNNNGISSTRIYSLRMWICSKLNSYSLHCQTPFFPS
# Variants of: B1
# Test: flow cytometry on cells (PE-tetramer staining)
# Settings: with Clr-b on transfected HEK293T cells [mouse]; HEK293T cells stained 48 h after transfection with Clr-b pIRES2-EGFP; parent: 3.14e+03
row,response [MFI],Variant
1,238,chain 1 SAKLECPQDWLSHRDKCFHVSQVSNTWKECRIDCDKKGATLLLIQDQEELRFLLDSIKEKYNSFWIGLSYTLTDMNWKWINGTAFNSDVLKITGVTENGSCAAISGEKVTSEGCSSDNAWICQKELN [chain 1 R119A]
2,208,chain 1 SAKLECPQDWLSHRDKCFHVSQVSNTWKECRIDCDKKGATLLLIQDQEELRFLLDSIKEKYNSFWIGLSYTLTDMNWKWINGTAFNSDVLKITGVAENGSCAAISGEKVTSEGCSSDNRWICQKELN [chain 1 T96A]
3,211,chain 1 SAKLECPQDWLSHRDKCFHVSQVSNTWKECRIDCDKKGATLLLIQDQEELRFLLDSIKEKYNSFWIGLSYTLTDMNWKWINGTAFNSDVLKITGVTENGSCAAISGEKVTSEGCSADNRWICQKELN [chain 1 S116A]
4,198,chain 1 SAKLECPQDWLSHRDKCFHVSQVSNTWKECRIDCDKKGATLLLIQDQEELRFLLDSIKEKYNSFWIGLSYTLTDMNWKWINGTAFNSDVLKITGVTENGSCAAISGEKVTSEGCSRDNRWICQKELN [chain 1 S116R]
5,346,chain 1 SAKLECPQDWLSHRDKCFHVSQVSNTWKECRIDCDKKGATLLLIQDQEELRFLLDSIKEKANSFWIGLSYTLTDMNWKWINGTAFNSDVLKITGVTENGSCAAISGEKVTSEGCSSDNRWICQKELN [chain 1 Y61A]
6,217,chain 1 SAKLECPQDWLSHRDKCFHVSQVSNTWKECRIDCDKKGATLLLIQDQEELRFLLDSIKEKYNSFWIGLSYTLTDMNWKWINGTAFNSDVLKITGVTENGACAAISGEKVTSEGCSSDNRWICQKELN [chain 1 S100A]
7,229,chain 1 SAKLECPQDWLSHRDKCFHVSQVSNTWKECRIDCDKKGATLLLIQDQEELRFLLDSIKEKYNSFWIGLSYTLTDMNWKWINGTAFNSDVLKITGVTENGSCAAISGEKVTAEGCSSDNRWICQKELN [chain 1 S111A]
8,178,chain 1 SAKLECPQDWLSHRDKCFHVSQVSNTWKECRIDCDKKGATLLLIQDQEELRFLLDSIKEKYNSFWIGLSYTLTDMNWKWINGTAFNSDVLKITGVTENGSCAAISGEKVTSEGCASDNRWICQKELN [chain 1 S115A]
9,5900,chain 1 SAKLECPQDWLSHRDKCFHVSQVSNTWKECRIDCDKKGATLLLIQDQEELRFLLDSIKEKYNSFWIGLSYTLTDMNWKWINGTAFNSDVLKITGATENGSCAAISGEKVTSEGCSSDNRWICQKELN [chain 1 V95A]

# Second part, the variant before the results:
row,Variant,response [MFI]
1,chain 1 SAKLECPQDWLSHRDKCFHVSQVSATWKECRIDCDKKGATLLLIQDQEELRFLLDSIKEKYNSFWIGLSYTLTDMNWKWINGTAFNSDVLKITGVTENGSCAAISGEKVTSEGCSSDNRWICQKELN [chain 1 N25A],5680
2,chain 1 SAKLECPQDWLSHRDKCFHVSQVSNTWKECRIDCDKKGATLLLIQDQEELRFLLDSIKEKYNSFWIGLSYTLTDMNWKWINGTAFNSDVLKITGVTENGSCAAISGEKVTSEGCSSDARWICQKELN [chain 1 N118A],213
3,chain 1 SAKLECPQDWLSHRDKCFHVSQVSNTWKECRIDCDKKGATLLLIQDQEELRFLLDSIKEKYNSFWIGLSYTLTDMNWKWINGTAFNSDVLKITGVTENGSCAAISGEKVTSEGCSSANRWICQKELN [chain 1 D117A],232
4,chain 1 SAKLECPQDWLSHRDKCFHVSQVSNTWKECRIDCDKKGATLLLIQDQEELRFLLDSIKEKYASFWIGLSYTLTDMNWKWINGTAFNSDVLKITGVTENGSCAAISGEKVTSEGCSSDNRWICQKELN [chain 1 N62A],4880
5,chain 1 SAKLECPQDWLSHRDKCFHVSQVSNTWKECRIDCDKKGATLLLIQDQEELRFLLDSIKEKYNSFWIGLSYTLTAMNWKWINGTAFNSDVLKITGVTENGSCAAISGEKVTSEGCSSDNRWICQKELN [chain 1 D74A],212
6,chain 1 SAKLECPQDWLSHRDKCFHVSQVSNTWKECRIDCDKKGATLLLIQDQEELRFLLDSIKEKYNSFWIGLSYTLTDMNWKWINGTAFNSDVLKITGVTENGSCAAISGEKVTSAGCSSDNRWICQKELN [chain 1 E112A],269

# Source: article PMC6218473, “Recognition of host Clr-b by the inhibitory NKR-P1B receptor provides a basis for missing-self recognition” (Nature Communications, 2018)
